Target: mmCRM1 (mouse CRM1), in solution in the direct binding assay (mouse, UniProt Q6P5F9 1-1071)
Experiment: pull-down; 250 pmoles His14-ZZ-bdSUMO tagged candidate on 20 μl anti-ZZ beads; 300 pmoles mmCRM1 with or without 1500 pmoles RanGTP (hsRanQ69L^5-180) in 500 µl; 3 hr at 4°C; elution by bdSENP1 protease; SDS-PAGE and Coomassie-staining
Details: both partners purified

Sequence of mmCRM1 (mouse CRM1), in solution in the direct binding assay (Q6P5F9 whole entry): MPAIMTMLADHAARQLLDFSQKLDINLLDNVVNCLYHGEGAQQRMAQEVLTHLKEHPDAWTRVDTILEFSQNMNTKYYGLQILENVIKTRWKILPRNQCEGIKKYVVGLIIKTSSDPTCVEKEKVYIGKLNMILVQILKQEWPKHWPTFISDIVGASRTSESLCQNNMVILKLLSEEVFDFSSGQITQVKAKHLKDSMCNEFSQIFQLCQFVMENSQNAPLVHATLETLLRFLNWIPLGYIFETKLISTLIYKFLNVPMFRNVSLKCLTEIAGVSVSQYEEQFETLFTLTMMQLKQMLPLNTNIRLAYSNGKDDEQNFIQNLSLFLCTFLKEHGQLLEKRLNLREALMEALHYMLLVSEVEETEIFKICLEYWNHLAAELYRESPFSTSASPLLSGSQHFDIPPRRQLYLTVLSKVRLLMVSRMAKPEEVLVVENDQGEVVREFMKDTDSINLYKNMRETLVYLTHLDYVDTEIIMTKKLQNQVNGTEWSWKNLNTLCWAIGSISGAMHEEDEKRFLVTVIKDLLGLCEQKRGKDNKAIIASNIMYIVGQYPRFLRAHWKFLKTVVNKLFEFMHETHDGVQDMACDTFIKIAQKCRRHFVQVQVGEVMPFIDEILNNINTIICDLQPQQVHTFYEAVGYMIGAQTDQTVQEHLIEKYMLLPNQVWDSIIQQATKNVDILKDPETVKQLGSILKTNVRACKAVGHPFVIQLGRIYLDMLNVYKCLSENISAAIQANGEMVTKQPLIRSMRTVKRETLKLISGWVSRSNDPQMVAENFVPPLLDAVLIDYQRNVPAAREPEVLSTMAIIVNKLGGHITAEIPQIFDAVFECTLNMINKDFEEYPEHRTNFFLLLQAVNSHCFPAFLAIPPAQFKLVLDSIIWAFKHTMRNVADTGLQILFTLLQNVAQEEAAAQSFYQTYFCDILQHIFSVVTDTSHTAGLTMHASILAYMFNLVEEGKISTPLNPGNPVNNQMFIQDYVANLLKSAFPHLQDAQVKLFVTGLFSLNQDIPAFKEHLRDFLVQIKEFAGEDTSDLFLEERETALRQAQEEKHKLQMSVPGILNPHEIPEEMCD

B1: H14-ZZ-Sumo tagged ARP2/3 1b (natural protein)
chain: not shown
notes: subunit 1b of the ARP2/3 complex, Xenopus; see Supplementary file 6; also called subunit 1b of the ARP2/3 complex; source: E. coli, purified (Ni2+ chelate chromatography, imidazole elution)
- binding result: binds
